The target in this test is pYEEI. The test is described as follows: SPR. (In general: In SPR one partner is held on a chip, and binding of the other changes the refractive index at the surface.)

B1: Hck SH2 (protein)
chain: WFFKGISRKDAERQLLAPGNMLGSFMIRDSETTKGSYSLSVRDYDPRQGDTVKHYKIRTLDNGGFYISPRSTFSTLQELVDHYKKGNDGLCQKLSVPC
Consider B1, for which the dissociation constant Kd (in general, the concentration at which binding is half-saturated) was 42 µM.

(Values after PMC6893557 (2019).)
